Test results published in paper PMC8902816, “Plasmodium falciparum GBP2 Is a Telomere-Associated Protein That Binds to G-Quadruplex DNA and RNA”.

Experiments:
[1] = biological target: T1, PfGBP2 (Plasmodium falciparum, UniProt Q8IJX3 1-246); experiment: EMSA; 50 ng dIdC; not efficiently competed by unlabeled RNA, partially by unlabeled DNA; EMSA: 1 ug GBP2 (bacterial extract), 50 ng dIdC, 20 fmol biotin probe, 20 min, room temperature, 200-fold competitor, 0.5x TBE 4-12% gel; dot blot/ThT: oligos folded in 100 uM (so in the source) Tris pH 7.8 and 100 uM KCl, or LiCl up to 1 M; settings: protein: recombinant; tags: 6xHis at N and C termini (pET-28a+); label: 3' biotin (EMSA)
T1 sequence: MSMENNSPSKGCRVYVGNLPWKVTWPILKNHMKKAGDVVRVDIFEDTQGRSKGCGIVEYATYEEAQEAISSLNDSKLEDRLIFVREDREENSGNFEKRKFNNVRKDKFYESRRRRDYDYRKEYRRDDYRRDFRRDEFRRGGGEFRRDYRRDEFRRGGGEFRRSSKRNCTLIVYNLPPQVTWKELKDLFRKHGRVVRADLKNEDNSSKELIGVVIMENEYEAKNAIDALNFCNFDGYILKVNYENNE

[2] = biological target: T1, PfGBP2; experiment: EMSA; 50 ng dIdC; EMSA: 1 ug GBP2 (bacterial extract), 50 ng dIdC, 20 fmol biotin probe, 20 min, room temperature, 200-fold competitor, 0.5x TBE 4-12% gel; dot blot/ThT: oligos folded in 100 uM (so in the source) Tris pH 7.8 and 100 uM KCl, or LiCl up to 1 M; settings: protein: recombinant; tags: 6xHis at N and C termini (pET-28a+); label: 3' biotin (EMSA)

B1: RNA G-rich 2 (ssRNA)
RNA: UUCAGGGUUCAGGGUUCAGGGUUCAGGGUUC
- binding result [1]: binds

B2: A/T only (ssDNA)
DNA: TTAAAATTTATAATTATAAATTTTAA
- binding result [2]: no binding

B3: G-rich 1 scram (ssDNA)
DNA: GTGTATGCGTTATGTGTATGCGTGTGAGTG
- binding result [2]: no binding
